Changes are numbered by the printed parent chain. Entries after “also recorded” stand apart in the source; their conditions may differ.
B1: FBE5-F11: VH SEQ ID NO: 81, VL SEQ ID NO: 111 (antibody, V domains shown)
VH: QVQLQESGGGVVQPGRSLRLSCAASGFTFSSYGMHWVRQAPGKGLEWVAVISYDGSNKYYADSVKGRFTISRDNSKNTLYLQMNSLRAEDTAVYYCAKDLASSGFDYWGQGTLVTVSS
VL: QSVLTQPPSVSAAPGQKVTISCSGSSSNIGNNYVSWYQQLPGTAPKLLIYDNNKRPSGIPDRFSGSKSGTSATLGITGLQTGDEADYYCGTWDSSLSAEVFGGGTKLTVL
B2: LIG40-D8: VH SEQ ID NO: 100, VL SEQ ID NO: 130; selected against Coa-R506-636 (antibody, V domains shown)
VH: B1 VH with Q1E, Q5V, S52W, K98R, L100Y, A101H, S102G, S103D
VL: DIQMTQSPSSLSASVGDTVTITCRASQDINNYLAWFQQKPGKAPKSLISAASSLQNGVPLRFSGSASGADFTLTISGLQPEDSGTYYCQQYDVFPITFGPGTKVDIK

Key:
[1] = system: Coa-F, Coa-R0, Efb-N, Efb-O, Efb-A binding to Fg; test: Inhibition by FBE5 scFv-Fc of Coa and Efb fragment binding to immobilized human Fg; parameters: species or system Staphylococcus aureus; details: scFv-Fc 0.5, 5, 50 μg/ml; Coa-F, Coa-R0, Efb-N, Efb-O 10 nM; Efb-A 750 nM
Procedure: To assess the inhibitory activity of anti-Coa scFv-Fc antibodies, 0.5 μg/well of human Fg was immobilized at 4° C. overnight in 50 mM Carbonate Buffer, pH 9.6. Indicated amounts (50, 5, 0.5 μg/ml) of scFv-Fcs prepared in 2% BSA+1×TBS+0.05% TWEEN® 20 were pre-incubated for 1 hour with a constant concentration of Coa or Efb fragments also prepared in 2% BSA+1×TBS+0.05% TWEEN® 20 at room temperature, 250 rpm shaking. Specifically, Coa-F, Coa-R0, Efb-N and Efb-O were at a fixed concentration of 10 nM; whereas Efb-A was at 750 nM. Fg-binding activity of each protein alone was also checked (no mAb control—0 μg/ml). The Fg-coated plate was blocked with 2% BSA-TBST and washed with PBST. […] Residual bound Coa and Efb fragments were detected with HRP-conjugated (HorseRadish Peroxidase-conjugated) α-GST-tag antibody, except for Efb-N, where an HRP-conjugated α-HIS-tag was used (see FIG. 18). HRP-tagged antibodies were diluted in 2% BSA+1×TBS+0.05% TWEEN® 20 and used at 1:10000 dilution. […] HRP signal was developed using […]™ OPD tablets using manufacturer's guidelines. Binding of Coa and Efb fragments to Fg (no mAb control) was set to 100% and residual binding to Fg of Coa and Efb fragments in the presence of different concentrations of antibodies was calculated and represented.
To assess the inhibitory activity of anti-Coa scFv-Fc antibodies, 0.5 μg/well of human Fg was immobilized at 4° C. overnight in 50 mM Carbonate Buffer, pH 9.6. Indicated amounts (0, 0.5, 5, and 50 μg/ml) of scFv-Fcs were pre-incubated for 1 hour with a constant concentration of Coa or Efb fragments. Specifically, Coa-F, Coa-R0, Efb-N and Efb-O were at a fixed concentration of 10 nM; whereas Efb-A was at 750 nM. Fg-binding activity of each protein alone was also checked (no mAb control—0 μg/ml). The Fg-coated plate was blocked with 2% BSA-PBST and washed with PBST. The pre-incubated mixture of Coa/Efb and anti-Coa scFv-Fc was transferred on the Fg-coated plate. Residual bound Coa and Efb fragments were detected with HRP-conjugated (HorseRadish Peroxidase-conjugated) α-GST-tag antibody, except for Efb-N, where an HRP-conjugated α-HIS-tag was used. Binding of Coa and Efb fragments to Fg (no mAb control) was set to 100% and residual binding to Fg of Coa and Efb fragments in the presence of different concentrations of antibodies was calculated and represented.

[2] = target: Coa-C311-636, Coa-F311-505, Coa-R0474-505; details: all three Coa fragments (Coa-C311-636, Coa-F311-505, Coa-R0474-505)
Source text: (§1) Apparent affinity values were generated through analysis of the half maximum binding in ELISA, using […] PRISM® Version 6.01.

[3] = system: Coa-F311-505 and Coa-R0474-505; test: Solid-phase binding ELISA of LIG40 antibodies to Coa-F311-505 and Coa-R0474-505; parameters: species or system Staphylococcus aureus; details: 200 ng/well
Procedure: As well, binding was tested against Coa fragments, namely Coa-C311-636. Coa-F311-505. Coa-R0474-505 and Coa-R506-636. […] Immobilized proteins were probed for recognition in a solid-phase binding assay with different quantities of LIG40 antibodies after blocking and washing. […] HRP signal was developed with […]™ OPD using manufacturers guidelines. These 2 antibodies bound only Coa fragments in a dose dependent manner. No binding to truncated recombinant Efb proteins was observed.
For both antibodies, values in the range of 10^−10-10^−11 M were obtained.

Coa-R506-636 = target: T1, Coa-R506-636 (Staphylococcus aureus, UniProt P07767); format: binding; details: 200 ng/well
T1 construct: the Coa-R is corresponding to the tandem-repeat region covering residue 506-636; GST (N); made in house; host or cells: E. coli BL21
Procedure: (§2) As well, binding was tested against Coa fragments, namely Coa-C311-636. Coa-F311-505. Coa-R0474-505 and Coa-R506-636. Recombinant proteins Efb-N30-105, Efb-A30-67, Efb-O68-98, Coa-C311-636, Coa-F311-505, Coa-R0474-505 and Coa-R506-636 were diluted in 50 mM sodium carbonate pH 9.6 and immobilized at the concentration of 200 ng/well for 1 hour at room temperature. Immobilized proteins were probed for recognition in a solid-phase binding assay with different quantities of LIG40 antibodies after blocking and washing. After washing, varying concentrations of LIG40 scFv-Fc antibodies were diluted in 2% BSA+1×PBS+0.05% TWEEN® 20 and incubated with the immobilized proteins for 1 hour at room temperature with shaking at 250 rpm. Bound scFv-Fcs were detected using polyclonal α-human IgG HRP-conjugated Ab diluted to 1:10000 in 2% BSA+1×PBS+0.05% TWEEN® 20. HRP-conjugated Ab was incubated for 1 hour at room temperature with shaking at 250 rpm.
as §1

CoaC and CoaR = test: Peptide (CoaRO, CoaRI) inhibition of LIG40 mAbs binding to immobilized CoaC and CoaR; parameters: species or system Staphylococcus aureus; details: mAbs 0.5 μg/ml; 200 ng/well
Procedure: To investigate if LIG40 mAbs could be inhibited by CoaRO and CoaRI peptides, CoaC and CoaR (200 ng/well) was immobilized at 4° C. overnight in 50 mM Carbonate Buffer, pH 9.6. A fixed concentration of mAbs (0.5 μg/ml) prepared in 2% BSA+1×TBS+0.05% TWEEN® 20 was added to the wells along with indicated amounts of CoaRO and CoaRI peptides prepared in 1X TBS. Incubation for 1 hour, room temperature, 250 rpm shaking followed. After washing, the levels of bound mAbs were determined using a polyclonal α-human IgG HRP-conjugated Ab diluted 1:10000 in 2% BSA+1×TBS+0.05% TWEEN® 20. […] The development was performed through […]™ OPD tablets following manufacturer's protocol. […] First, to achieve appreciable inhibition high concentration of peptides needed to be used (above 100 μM).
To investigate if LIG40 mAbs could be inhibited by CoaRO and CoaRI peptides, CoaC and CoaR (200 ng/well) was immobilized at 4° C. overnight in 50 mM Carbonate Buffer, pH 9.6. A fixed concentration of mAbs (0.5 μg/ml) was added to the wells along with, indicated amounts of CoaRO and CoaRI peptides. Incubation for 1 hour, room temperature, 250 rpm shaking followed. After washing, […] were incubated with polyclonal α-human IgG HRP-conjugated Ab. […] First, to achieve appreciable inhibition high concentration of peptides needed to be used (above 100 μM).

Coa-C311-636 = test: Solid-phase binding ELISA of scFv-Fc antibodies to Coa-C311-636; parameters: species or system Staphylococcus aureus; details: 200 ng/well
Procedure: as §2, §1

Row | Molecule | inhibition of binding to Fg of all proteins tested [1] | apparent Kd of anti-CoaC mAbs to Coa fragments (EC50 in ELISA) [2] | binding to Coa-F311-505 and Coa-R0474-505 [3] | binding to Coa-R506-636 (Coa-R506-636) | inhibition of LIG40 mAb binding to CoaC and CoaR by peptides (CoaC and CoaR) | binding to Coa-C311-636 (Coa-C311-636)
1 | B1 | dose dependent inhibition of all proteins tested; also recorded: marked inhibition against all fragments of Coa and Efb | highest affinity |  |  |  | 
2 | B2 |  |  | detected to a minor extent; also recorded: minor binding | bound | only impaired in its binding activity by CoaRO peptide | bound
